Assay results reported in IntAct's records for PubMed 18075593.

Target: cry1_mouse Cry1 (UniProt P97784)
Sequence (P97784 whole entry): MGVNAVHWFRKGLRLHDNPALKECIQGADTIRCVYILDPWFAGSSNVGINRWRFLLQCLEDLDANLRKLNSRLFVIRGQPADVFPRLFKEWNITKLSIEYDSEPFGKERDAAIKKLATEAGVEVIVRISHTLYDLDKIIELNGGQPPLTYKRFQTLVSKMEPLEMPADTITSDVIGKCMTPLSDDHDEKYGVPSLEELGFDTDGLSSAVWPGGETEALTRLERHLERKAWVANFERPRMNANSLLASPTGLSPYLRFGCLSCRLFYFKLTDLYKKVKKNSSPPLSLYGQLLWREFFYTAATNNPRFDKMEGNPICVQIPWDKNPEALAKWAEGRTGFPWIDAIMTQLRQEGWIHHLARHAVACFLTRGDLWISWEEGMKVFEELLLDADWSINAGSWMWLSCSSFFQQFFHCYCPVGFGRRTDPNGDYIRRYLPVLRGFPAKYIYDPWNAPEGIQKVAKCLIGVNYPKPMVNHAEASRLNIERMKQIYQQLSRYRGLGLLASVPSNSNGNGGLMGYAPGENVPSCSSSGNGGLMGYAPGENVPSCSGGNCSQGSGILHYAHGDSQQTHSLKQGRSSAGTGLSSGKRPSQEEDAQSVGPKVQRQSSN

Sequence of Basic helix-loop-helix ARNT-like protein 1 (Mus musculus), Q9WTL8-2 K537R (Q9WTL8 other isoform, or with tags, fused parts or gaps K537R): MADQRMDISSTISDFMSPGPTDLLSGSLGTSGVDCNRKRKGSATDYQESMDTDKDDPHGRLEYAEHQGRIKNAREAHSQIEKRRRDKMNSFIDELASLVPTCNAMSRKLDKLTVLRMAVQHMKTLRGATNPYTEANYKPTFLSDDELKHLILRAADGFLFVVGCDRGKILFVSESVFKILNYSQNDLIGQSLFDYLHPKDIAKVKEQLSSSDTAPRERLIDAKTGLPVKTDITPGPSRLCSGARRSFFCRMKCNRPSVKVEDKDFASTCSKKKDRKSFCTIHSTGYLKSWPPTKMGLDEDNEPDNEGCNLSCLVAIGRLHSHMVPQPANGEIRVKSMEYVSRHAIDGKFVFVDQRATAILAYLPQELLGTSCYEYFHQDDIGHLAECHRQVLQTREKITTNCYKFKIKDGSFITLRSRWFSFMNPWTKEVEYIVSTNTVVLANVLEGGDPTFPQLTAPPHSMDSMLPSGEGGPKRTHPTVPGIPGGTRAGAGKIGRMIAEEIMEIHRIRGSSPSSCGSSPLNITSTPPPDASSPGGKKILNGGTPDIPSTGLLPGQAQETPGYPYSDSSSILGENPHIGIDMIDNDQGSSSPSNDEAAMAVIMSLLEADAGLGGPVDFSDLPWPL

effect of a mutation on the interaction: decreasing interaction strength
Substance: Basic helix-loop-helix ARNT-like protein 1 (Mus musculus), Q9WTL8-2 K537R
